Source: EP0799891A1

How the values were obtained:
[1] = target: fusion protein consisting of the extracellular region of the human Fas antigen and the extracellular region of the mouse interleukin 3 receptor (encoded by phFas-AIC2) (human; mouse) (UniProt P25445); assay: ELISA; plate coated with COS-1 supernatant holding the human Fas ECD-mouse IL-3 receptor ECD fusion; detection with peroxidase-labelled rat anti-mouse IgM; PBS blank 0.104
[2] = target: human Fas antigen on human lymphocyte cell line HPB-ALL (human) (UniProt P25445); assay: cell-based or functional assay

| OD405 - OD492 (OD405 - OD492) [1] | ED50 [2] | Substance | OD590 - OD620 (MTT assay, viable HPB-ALL cells) (OD590 - OD620) [2] | activity (cytotoxicity, ED50 test) relative to CH11 and supernatant [F] [2] |
| --- | --- | --- | --- | --- |
| 0.109 |  | CH11 H chain alone, COS-1 culture supernatant of cells transfected with pHEX126 | 0.876 |  |
| 0.445 | 0.0212 µg/mL | mouse anti-human Fas monoclonal antibody CH11 (IgM), purified from hybridoma culture supernatant |  |  |

Continued, substance first:

| Substance | OD405 - OD492 (OD405 - OD492) [1] | ED50 [2] | OD590 - OD620 (MTT assay, viable HPB-ALL cells) (OD590 - OD620) [2] | activity (cytotoxicity, ED50 test) relative to CH11 and supernatant [F] [2] |
| --- | --- | --- | --- | --- |
| CH11 L chain alone, COS-1 culture supernatant of cells transfected with pLEX004 | 0.135 |  | 0.887 |  |
| recombinant CH11 H chain + L chain + J chain product in COS-1 culture supernatant [F] (pHEX126, pLEX004 and pJEX004) (antibody) | 0.202 | 0.0229 µg/mL | 0.242 |  |
| CH11 J chain alone, COS-1 culture supernatant of cells transfected with pJEX004 | 0.107 |  | 0.883 |  |
| recombinant CH11 H chain + L chain product in COS-1 culture supernatant [E] (pHEX126 and pLEX004), without J chain (antibody) | 0.33 | 0.0045 µg/mL | 0.176 | 5 fold |
